Reference: publication PMC11493271, “The N-terminal activation function AF-1 domain of ERα interacts directly with the C-terminal AF-2-holding ligand-binding domain to recruit the coactivator proteins” (PLOS ONE, 2024)
Entries after “also recorded” stand apart in the source; their conditions may differ. Each block holds one molecule with its values, some of them ahead of it.

Tests used:
[1] = biological target: full-length estrogen receptor alpha (ERα), wild type (1-595) (human) (UniProt P03372)
[2] = biological target: full-length estrogen receptor alpha (ERα), wild type (1-595) (human) (UniProt P03372); remark: listed apart in the source
[3] = biological target: desNTD(AF-1)-ERα, ERα C-terminal fragment with amino acid residues 181-595 (human) (UniProt P03372)
desNTD(AF-1)-ERα = biological target: T1, desNTD(AF-1)-ERα (Homo sapiens, UniProt P03372); test: Luciferase reporter gene assay for desNTD(AF-1)-ERα, alone or co-expressed with ERα-NTD(AF-1), in HeLa cells
T1 sequence (P03372 181-595): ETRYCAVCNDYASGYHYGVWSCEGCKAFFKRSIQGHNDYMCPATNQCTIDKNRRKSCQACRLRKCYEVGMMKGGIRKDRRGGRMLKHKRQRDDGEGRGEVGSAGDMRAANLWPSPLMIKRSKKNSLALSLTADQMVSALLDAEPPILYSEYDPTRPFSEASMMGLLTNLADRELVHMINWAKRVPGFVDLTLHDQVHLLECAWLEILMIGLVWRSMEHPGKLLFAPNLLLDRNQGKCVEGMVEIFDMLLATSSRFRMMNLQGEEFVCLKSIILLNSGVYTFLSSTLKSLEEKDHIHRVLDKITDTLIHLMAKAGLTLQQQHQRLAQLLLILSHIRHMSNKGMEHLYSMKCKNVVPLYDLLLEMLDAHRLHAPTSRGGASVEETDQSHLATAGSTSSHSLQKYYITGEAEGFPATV
Experimental: (§1) The luciferase reporter gene assays were carried out exactly as described above.

[4] = tested on: 3 × ERE/pGL3 luciferase reporter; test: Transcription activity of truncated ERα derivatives in the luciferase reporter gene assay (HeLa cells); conditions: plasmid 250 ng/well
Experimental: as §1

full-length ERα = biological target: T2, full-length ERα (Homo sapiens, UniProt P03372); test: ERα-NTD(AF-1) inhibition assay: co-expression with full-length ERα, luciferase reporter gene assay in HeLa cells; type: cell-based; conditions: for effect on transcription activity of full-length ERα: plasmid 0.01–2.00 μg/well with full-length ERα 0.05 μg/well, E2 0.1, 1 or 50 nM, Fig 3
T2 construct: […]; host or cells: HeLa cells
T2 sequence (P03372 1-595): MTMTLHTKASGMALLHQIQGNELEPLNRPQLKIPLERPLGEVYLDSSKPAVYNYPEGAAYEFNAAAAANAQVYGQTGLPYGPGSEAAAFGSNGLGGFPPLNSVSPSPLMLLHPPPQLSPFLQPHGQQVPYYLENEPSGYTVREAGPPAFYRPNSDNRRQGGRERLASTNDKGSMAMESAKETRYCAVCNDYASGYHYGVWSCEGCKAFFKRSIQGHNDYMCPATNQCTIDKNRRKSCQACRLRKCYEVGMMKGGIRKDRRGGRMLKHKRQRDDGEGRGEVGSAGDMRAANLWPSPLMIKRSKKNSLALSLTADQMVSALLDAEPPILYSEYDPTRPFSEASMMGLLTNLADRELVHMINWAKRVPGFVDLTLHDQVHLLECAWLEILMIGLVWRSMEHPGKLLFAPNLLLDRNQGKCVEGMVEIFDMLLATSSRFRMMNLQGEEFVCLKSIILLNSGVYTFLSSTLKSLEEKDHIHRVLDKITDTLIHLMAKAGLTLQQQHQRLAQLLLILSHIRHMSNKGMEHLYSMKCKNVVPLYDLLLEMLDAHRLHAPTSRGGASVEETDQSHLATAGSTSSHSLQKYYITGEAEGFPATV
Experimental: Other expression plasmids were used in fixed amounts: full-length ERα/pcDNA3.1 (0.05 μg/well), 3 × ERE/pGL3 (0.15 μg/well), and pGL4.74 (0.05 μg/well) (Table 1).
Gene transfections followed by luciferase reporter gene assays were carried out basically as described above.
Thus, each distinct maximal activity was evaluated precisely as a percentage.

luciferase reporter gene assay in HeLa cells: IC50 of the ERα-NTD(AF-1) plasmid (amount transfected per well of a 6-well microplate) from the curve of the maximal activity of ERα/E2 [1]: 631 ng/well
luciferase reporter gene assay in HeLa cells: apparent IC50 of the ERα-NTD(AF-1) plasmid (amount transfected per well of a 6-well microplate) for the activity of 10 nM E2 on full-length ERα [2]: 836 ng/well
luciferase reporter gene assay in HeLa cells: apparent IC50 of the ERα-NTD(AF-1) plasmid (amount transfected per well of a 6-well microplate) for inhibition of desNTD(AF-1)-ERα [3]: 863 ng/well
Molecule: ERα-NTD(AF-1), untethered free N-terminal fragment of estrogen receptor alpha (residues 1-180), non-tagged (from UniProt P03372 1-180) (domain or fragment)

reduction in E2-induced transactivation compared to desNTD(AF-1)-ERα alone (desNTD(AF-1)-ERα; ERα-NTD(AF-1): desNTD(AF-1)-ERα = 1:1, desNTD(AF-1)-ERα 250 ng/well): ~20%
apparent IC50 for inhibition of desNTD(AF-1)-ERα (desNTD(AF-1)-ERα; plasmid amount per well of 6-well microplate used for transfection): 863 ng/well
reduction in E2-induced transactivation compared to desNTD(AF-1)-ERα alone (desNTD(AF-1)-ERα; ratio 2:1): 44%
reduction in E2-induced transactivation compared to desNTD(AF-1)-ERα alone (desNTD(AF-1)-ERα; ratio 3:1): 62%
reduction in E2-induced transactivation compared to desNTD(AF-1)-ERα alone (desNTD(AF-1)-ERα; ratio 4:1): 73%
reduction in E2-induced transactivation compared to desNTD(AF-1)-ERα alone (desNTD(AF-1)-ERα; ratio 5:1): 85%
reduction in E2-induced transactivation compared to desNTD(AF-1)-ERα alone (desNTD(AF-1)-ERα; ratio 6:1): 91%
IC50 from transfection amount vs maximal activity of ERα/E2 (full-length ERα; E2 dose-response maxima, plasmid per well of 6-well microplate, Fig 4C): 631 ng/well
effect on transcription activity of full-length ERα (full-length ERα): reduced in a dose-dependent manner
apparent IC50 for inhibition of full-length ERα (full-length ERα; residual activity of 10 nM E2, plasmid per well of 6-well microplate, Fig 4A): 836 ng/well
mode of inhibition of full-length ERα (full-length ERα; with respect to E2): non-competitive inhibitor
B1: ERα-NTD(AF-1): ERα N-terminal fragment with amino acid residues 1–180, expressed from plasmid ERα-NTD(AF-1)/pcDNA3.1 (protein)
chain: MTMTLHTKASGMALLHQIQGNELEPLNRPQLKIPLERPLGEVYLDSSKPAVYNYPEGAAYEFNAAAAANAQVYGQTGLPYGPGSEAAAFGSNGLGGFPPLNSVSPSPLMLLHPPPQLSPFLQPHGQQVPYYLENEPSGYTVREAGPPAFYRPNSDNRRQGGRERLASTNDKGSMAMESAK
transcription activation (response to E2) ([4]; construct expressed alone): completely inactive; also recorded: completely devoid of transcription activation
relative activity (% of wild-type full-length ERα) ([4]; maximal E2 activity): 0%

effect on transcription activity of full-length ERα (full-length ERα): inhibits full-length ERα
B2: FLAG-ERα-NTD(AF-1): ERα-NTD(AF-1) tagged at the N-terminus with DYKDDDDK, a FLAG-epitope peptide (protein)
chain: B1 chain
modifications: left off: FLAG, N-terminal, kept
